From patent USRE43371 (dated 2012)
Square brackets hold non-standard residues; d marks the D form. MeBmt = C/C=C/C[C@@H](C)[C@@H](O)[C@H](NC)C(=O)O; NMeI = CC[C@H](C)[C@H](NC)C(=O)O; NMeL = CN[C@@H](CC(C)C)C(=O)O; NMeV = CN[C@H](C(=O)O)C(C)C; Abu = CC[C@H](N)C(=O)O; Sar = CNCC(=O)O

Columns and labels:
[1] = biological target: T1, human recombinant cyclophilin A (Sigma) (human, UniProt P62937 1-165); experiment: chymotrypsin-coupled spectrophotometric PPIase assay, tight binding inhibitor fit
T1 construct: Bought protein

cyclophilin (Sigma) = experiment: cell-based or functional assay
Sequence of cyclophilin (Sigma) (P62937 whole entry): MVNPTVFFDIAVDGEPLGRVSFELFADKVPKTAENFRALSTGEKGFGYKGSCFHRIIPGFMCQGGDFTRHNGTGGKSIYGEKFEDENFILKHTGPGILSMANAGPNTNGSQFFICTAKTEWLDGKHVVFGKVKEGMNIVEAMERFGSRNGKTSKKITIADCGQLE

T1 sequence (P62937 whole entry): as above

Ki [1]: 2.11 nM | PPIase (IC50 of inhibition of cyclophilin PPIase activity, relative to cyclosporin A = 1.0) (cyclophilin (Sigma)): 0.5 relative to CsA
Binder: cyclo([MeBmt][Abu][Sar][NMeI]V[NMeL]A[dA][NMeL][NMeL][NMeV]) (also called [Melle]^4-CsA; NIM811) [[MeIle]^4-CsA]
